Experimental data: article PMC11614108, “Structures of Trichomonas vaginalis macrophage migratory inhibitory factor” (Acta Crystallographica Section F: Structural Biology …, 2024)

Assays:
[1] = target: N-terminally hexahistidine-tagged Trichomonas vaginalis macrophage migration inhibitory factor (Trichomonas vaginalis ATCC PRA-98/G3); experiment: crystal structure; His-TvMIF co-crystallized with 5 mM sodium pyruvate, Morpheus B12, 291 K, space group I4(1) (PDB 8ur2); six monomers
[2] = target: N-terminally hexahistidine-tagged Trichomonas vaginalis macrophage migration inhibitory factor (Trichomonas vaginalis ATCC PRA-98/G3); experiment: crystal structure; His-TvMIF crystallized at 291 K by sitting-drop vapor diffusion; apo P4(1)2(1)2 form (PDB 8uz4) and I4(1)22 form from an attempt at co-crystallization with 5 mM sodium 4-hydroxyphenylpyruvate (PDB 8ur4); three monomers per asymmetric unit
[3] = target: T1, His-TvMIF (T. vaginalis macrophage migration inhibitory factor) (Trichomonas vaginalis, UniProt A2DXT4); experiment: X-ray crystal structure, co-crystallization, […] A; type: binding; details: 5 mM sodium pyruvate, pH 7.0 protein buffer, reservoir pH 8.5, 291 K; non-canonical site at Asp68, not the tautomerase site (blocked by N-terminal tag); possibly a crystallization artifact
T1 construct: gene TVAG_219770; ~15 kDa monomer; trimer in crystal (8ur2: dimer of trimers)

Compound: N-terminally hexahistidine-tagged Trichomonas vaginalis macrophage migration inhibitory factor (natural protein)
- stoichiometry N [1]: 6
- stoichiometry N [2]: 3

Compound: CC(=O)C(=O)O [pyruvate]
- X-ray crystal structure, co-crystallization, 1.90 A [3]: The Fo − Fc omit electron-density maps of PDB entry 8ur2 can be modeled with pyruvate
